Data taken from patent publication US20190367619A1 (ARGENX, published 2019).

Experiments:
[1] = target: T1, TEV-cleaved wild-type recombinant human galectin-10 (soluble, in Fab complexes, or as recombinant galectin-10 … (human, UniProt Q05315 1-142)); assay: cell-based or functional assay
T1 sequence: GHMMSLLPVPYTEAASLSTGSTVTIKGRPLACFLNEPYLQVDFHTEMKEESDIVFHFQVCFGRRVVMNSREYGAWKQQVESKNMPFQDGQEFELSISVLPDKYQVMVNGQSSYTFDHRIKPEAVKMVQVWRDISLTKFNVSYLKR

[2] = target: T1, TEV-cleaved wild-type recombinant human …; assay: cell-based or functional assay; remark: listed apart in the source
[3] = target: T2, cynomolgus galectin-10-His, WGS isoform (cynomolgus); assay: ELISA, mouse IgG1 on coated cynoGal10-His_WGS (0.5 ug/mL)
T2 construct: not shown: His tag
T2 chain: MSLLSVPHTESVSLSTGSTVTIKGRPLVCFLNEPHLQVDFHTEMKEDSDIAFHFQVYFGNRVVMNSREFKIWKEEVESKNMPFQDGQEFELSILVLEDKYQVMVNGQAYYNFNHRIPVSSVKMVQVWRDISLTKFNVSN
Experimental: (§1) In a similar setup to that used during the characterization of the scFv-human Fc molecules, the relative binding properties of the 7 mouse IgG1 antibodies were analyzed by ELISA. A Maxisorp plate was coated overnight with 0.5 μg/mL of human or cynomolgus WGS or YRT isoform of galectin-10-His. Then a serial dilution of each clone (from 100 nM, dilution 1/4, 12 points of dilutions) was incubated on coated galectin-10. After several washing steps, detection of the bound mouse IgG1 was carried out with an anti-mouse Fc-HRP antibody (DAMPO, Jackson ImmunoResearch, Catalog 715-035-150). Absorbance was measured at 450 nm (reference at 620 nm) with Tecan instrument. The raw data (OD values) were plotted on GraphPad Prism 7.01. The EC50 values for each antibody, calculated with a non-linear regression (log(agonist) vs. response Variable slope (four parameters)), are shown in the table below. Antibody 1D11 from the previous panel was included for comparison.

[4] = target: T3, cynomolgus galectin-10-His, YRT isoform (cynomolgus); assay: ELISA, mouse IgG1 on coated cynoGal10-His_YRT (0.5 ug/mL)
T3 construct: not shown: His tag
T3 chain: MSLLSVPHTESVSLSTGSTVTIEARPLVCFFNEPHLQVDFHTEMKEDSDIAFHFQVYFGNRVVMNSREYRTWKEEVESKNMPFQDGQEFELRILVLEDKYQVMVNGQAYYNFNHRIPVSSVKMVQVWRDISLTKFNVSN
Experimental: as §1

[5] = target: T4, human galectin-10-His (recombinant human galectin-10 with TEV-cleavable N-terminal His-tag) (human); assay: ELISA, mouse IgG1 on coated galectin-10-His (0.2 ug/mL)
T4 construct: SEC-MALLS: dimer in solution; also called Gal10-His; humanGal10-His
T4 chain: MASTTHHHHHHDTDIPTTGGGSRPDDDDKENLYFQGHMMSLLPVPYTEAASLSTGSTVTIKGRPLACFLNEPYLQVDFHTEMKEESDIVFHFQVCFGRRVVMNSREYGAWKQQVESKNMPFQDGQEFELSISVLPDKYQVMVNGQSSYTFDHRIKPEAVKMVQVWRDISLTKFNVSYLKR
Method in brief: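 Serial dilutions of each antibody (from 100 nM, 1/4 steps, 12 points) were incubated on plates coated overnight with the antigen. Bound IgG1 detected with anti-mouse Fc-HRP, absorbance at 450 nm (reference 620 nm). EC50 from four-parameter variable-slope non-linear regression of OD values.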

[6] = target: T4, human galectin-10-His (recombinant …); assay: BLI tandem on galectin-10-His; competitor: saturating 1C09 mIgG1 (10 ug/mL)
Method in brief: (§2)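 Tandem BLI binning: antigen captured via His-tag, blocked with one antibody in excess, then probed with a second at suboptimal level.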

[7] = target: T4, human galectin-10-His (recombinant …); assay: BLI tandem on galectin-10-His; competitor: saturating 2C07 mIgG1 (10 ug/mL)
Method in brief: as §2

[8] = target: T4, human galectin-10-His (recombinant …); assay: BLI tandem on galectin-10-His; competitor: saturating 2F09 mIgG1 (10 ug/mL)
Method in brief: as §2

[9] = target: T4, human galectin-10-His (recombinant …); assay: BLI tandem on galectin-10-His; competitor: saturating 6A05 mIgG1 (10 ug/mL)
Method in brief: as §2

[10] = target: T4, human galectin-10-His (recombinant …); assay: BLI tandem on galectin-10-His; competitor: saturating 6A08 mIgG1 (10 ug/mL)
Method in brief: as §2

[11] = target: T4, human galectin-10-His (recombinant …); assay: BLI tandem on galectin-10-His; competitor: saturating 6B06 mIgG1 (10 ug/mL)
Method in brief: as §2

[12] = target: T4, human galectin-10-His (recombinant …); assay: BLI tandem on galectin-10-His; competitor: saturating 6E10 mIgG1 (10 ug/mL)
Method in brief: as §2

[13] = target: T4, human galectin-10-His (recombinant …); assay: BLI tandem on galectin-10-His; competitor: saturating 6F06 mIgG1 (10 ug/mL)
Method in brief: as §2

B1: 1D11 mouse IgG1 (antibody, V domains shown)
VH: QVQLVESGGGLVQPGGSLRLSCAASGFTFDDYAMSWVRQAPGKGLEWVSGISWNGGSTYYAESMKGRFTISRDNAKNTLYLQMNSLKSEDTAVYYCAKDRNLGYRLGYPYDYWGQGTQVTVSS
VL: QSVLTQPPSVSGSPGETVTISCAGTSSDVGYGNYVSWYQQLPGMAPRLLIYEVNKRASGITDRFSGSKSGNTASLTISGLQSEDEGDYYCASYRSSNNAVFGGGTHLTVL
notes: VH on mouse IgG1 heavy chain constant domains (CH1-CH2-CH3), VL on mouse lambda light chain constant domain; also called 1D011; 1D11 mIgG1
dissolution of in vitro grown Gal10 crystals (spinning disk confocal microscopy) [1]: ≤ 90 min
100% Inhibition of CLC formation (Conc uM) [2]: 0.34 µM
100% Solubilization of CLC (Conc uM) [2]: 7.86 µM
binding result [3]: no binding
binding result [4]: no binding
Bmax [5]: 1.5 OD
EC50 [5]: 100 pM
binding signal (nm) [6]: 0.01 nm
binding signal (nm) [7]: 0.02 nm
binding signal (nm) [8]: 0.02 nm
binding signal (nm) [9]: 0.06 nm
binding signal (nm) [10]: 0.01 nm
binding signal (nm) [11]: 0 nm
binding signal (nm) [12]: -0.01 nm
binding signal (nm) [13]: 0.03 nm
